Laboratory results reported in US20040146519A1.
One block for each binder: values may come before it.

Tests used:
HLA-B*0702 (human) = test: inhibition of 125I probe peptide, purified HLA; conditions: remark: other sources report otherwise
HLA-B*5101 (human) = test: inhibition of 125I probe peptide, purified HLA; conditions: remark: other sources report otherwise
HLA-B*5401 (human) = test: inhibition of 125I probe peptide, purified HLA; conditions: remark: other sources report otherwise
HLA-A*0201 (human) = test: competitive inhibition of 125I probe peptide, purified HLA
HLA-B*5301 (human) = test: inhibition of 125I probe peptide, purified HLA; conditions: remark: other sources report otherwise
HLA-A*0206 (human) [1] = test: competition with 125I probe peptide for purified HLA; conditions: remark: other sources report otherwise
HLA-A*3101 (human) = test: as above; conditions: remark: other sources report otherwise
HLA-DRB1*1501 (human) = biological target: T1, HLA-DRB1*1501 (human); test: competition with 125I probe peptide, purified HLA; conditions: remark: other sources report otherwise
T1 chain 1: not shown
T1 chain 2: not shown

HLA-DRB1*1302 (human) = biological target: T2, HLA-DRB1*1302 (human); test: competition with 125I probe peptide, purified HLA; conditions: remark: other sources report otherwise
T2 chain 1: not shown
T2 chain 2: not shown

HLA-A*0206 (human) [2] = test: inhibition of 125I probe peptide, purified HLA; conditions: remark: other sources report otherwise

IC50 (HLA-B*0702 (human)): 39 nM
IC50 (HLA-B*5101 (human)): 19 nM
IC50 (HLA-B*5401 (human)): 270 nM
Binder: IPWQRLLLTI [CEA.13.I10]

relative binding ratio (IC50 standard/IC50 peptide) (HLA-A*0201 (human)): 0.0022
Binder: SLLTFWNPPT [CEA peptide, position 23, 10 amino acids]

IC50 (HLA-B*0702 (human)): 212 nM
IC50 (HLA-B*5301 (human)): 930 nM
Binder: LPQHLFGYSI [CEA.58.I10]

IC50 (HLA-A*0206 (human) [1]): 80 nM
Binder: YLSGANLNV [CEA.605V9]

IC50 (HLA-A*3101 (human)): 6.2 nM
Binder: RTLTLLSVTR [CEA.376]

IC50 (HLA-DRB1*1501 (human)): 827 nM
IC50 (HLA-DRB1*1302 (human)): 318 nM
Binder: RWCIPWQRLLLTASL [CEA.10]

IC50 (HLA-A*3101 (human)): 9 nM
Binder: RVLTLFNVTR [CEA.554.V2]

IC50 (HLA-B*5401 (human)): 3.2 nM
Binder: IPWQRLLLTA [CEA.13, 10 AA]

IC50 (HLA-B*5301 (human)): 40 nM
IC50 (HLA-B*5401 (human)): 137 nM
Binder: YPNASLLI [CEA.102]

IC50 (HLA-A*3101 (human)): 5 nM
Binder: RTLTLFNVTR [CEA.554]

IC50 (HLA-A*0206 (human) [2]): 80 nM
Binder: YLSGANLNV [CEA.605.V9]
